Measured values from patent US20040115786A1 (priority 2001, published 2004).

Assay: Stability of purified ArsR protein to freeze thaw
Assay type: physicochemical
Details: post-dialysis, 0.48 mg/ml in 50 mM Hepes pH 8.5, 200 mM NaCl, 15 mM DTT, 5% glycerol
Experimental: Dialysis was performed next. Glycerol was added to bring the pool to a concentration of 5% glycerol by volume. The pool was then diluted to approximately 1 mg/ml with the dialysis buffer listed below. The faction pool was dialyzed in 3500 Molecular Weight Cutoff tubing placed in 1 liter consisting of 50 mM Hepes, pH 8.5, 200 mM NaCl, 1 mM EDTA, 15 mM DTT, and 5% glycerol for five hours. The dialysis tubing was then placed in 4 liters of 50 mM Hepes, pH 8.5, 200 mM NaCl, 15 mM DTT, and 5% glycerol overnight to remove any EDTA. The pool was then clarified by centrifugation, the protein concentration was determined, and a SDS-PAGE was run of the results.
The final product of a pilot production (5 g whole cell pellet from 34 g total) yielded a protein concentration of 480 μg/ml (in a 0.05% polysorbate solution for stabilization of the protein and reduction of non-specific binding to the sensor surface). The total volume for this experiment was 3.6 ml, which yielded a total protein yield of 1.75 mg. This was dissolved in a buffer of 50 mM Hepes, pH 8.5, 200 mM NaCl, 15 mM DTT, and 5% Glycerol. Purity was greater than 95% by SDS PAGE. In this system, induction was tightly regulated and successful, with 30-40% of protein production in soluble fraction. The initial yield from IMAC for dialysis was 5 mg at 1.0 mg/ml., with visible precipitation post dialysis.

B1: ArsR: E. coli arsenic-binding, DNA-binding ars operon repressor protein, SEQ ID NO:2, expressed from codon-optimized synthetic gene (protein)
chain: MLQLTPLQLFKNLSDETRLGIVLLLREMGELCVCDLCMALDQSQPKISRHLAMLRESGILLDRKQGKWVHYRLSPHIPSWAAQIIEQAWLSQQDDVQVIARKLASVNCSGSSKAVCI
- stability to freeze thaw cycles: stable to multiple freeze thaw cycles
